The results in this text go back to patent US10434088B2, “Methods related to administering immunosuppressants and therapeutic macromolecules at a reduced pharmacodynamically effective dose” (Selecta Biosciences, Inc., priority 2013, dated 2019).

The test system of test [1] is anti-OVA antibody (Ab) response. Kind of test: Example 2: anti-OVA antibody response to aggOVA. The format is in vivo, C57BL/6 mice. Conditions: 25 μg aggOVA i.v. d0, 14, 28 then boosts; nanocarriers i.v. (100 μg rapamycin) concomitantly d0, 14, 28 only; days 25, 40 and next 60 days; FIG. 3.
Test [2] deals with anti-OVA IgG antibody response. The test is described as follows: Example 9: anti-OVA IgG antibody titers. The format is in vivo, C57BL/6. The note with it: 2.5 μg pOVA i.v. weekly; 0.2 mg nanocarrier admixed days 0, 7, 14; FIG. 11. As to the method:
The control group of C57BL/6 age-matched (5-6 weeks) female were injected i.v. in the tail vein with 2.5 μg of an immunogenic form of particulate Ovalbumin (pOVA) and 2 μg of Keyhole Limpet Hemocyanin (KLH) s.c. in the hind limb once a week for 49 days (d0, 7, 14, 20, 28, 35, 42, 49).

B1: aggOVA: chicken ovalbumin induced using high sheer to form aggregates to increase its immunogenicity (protein, UniProt P01012 2-386, looked up)
Ovalbumin: GSIGAASMEFCFDVFKELKVHHANENIFYCPIAIMSALAMVYLGAKDSTRTQINKVVRFDKLPGFGDSIEAQCGTSVNVHSSLRDILNQITKPNDVYSFSLASRLYAEERYPILPEYLQCVKELYRGGLEPINFQTAADQARELINSWVESQTNGIIRNVLQPSSVDSQTAMVLVNAIVFKGLWEKAFKDEDTQAMPFRVTEQESKPVQMMYQIGLFRVASMASEKMKILELPFASGTMSMLVLLPDEVSGLEQLESIINFEKLTEWTSSNVMEERKIKVYLPRMKMEEKYNLTSVLMAMGITDVFSSSANLSGISSAESLKISQAVHAAHAEINEAGREVVGSAEAGVDAASVSEEFRADHPFLFCIKHIATNAVLFFGRCVSP
modifications: shear-induced aggregates
For B1, in test [1], the “anti-OVA antibody (IgG) response” value is recorded as “prominent anti-OVA antibody (Ab) response”.

B2: pOVA: immunogenic form of particulate Ovalbumin (protein, UniProt P01012 2-386, looked up)
Ovalbumin: GSIGAASMEFCFDVFKELKVHHANENIFYCPIAIMSALAMVYLGAKDSTRTQINKVVRFDKLPGFGDSIEAQCGTSVNVHSSLRDILNQITKPNDVYSFSLASRLYAEERYPILPEYLQCVKELYRGGLEPINFQTAADQARELINSWVESQTNGIIRNVLQPSSVDSQTAMVLVNAIVFKGLWEKAFKDEDTQAMPFRVTEQESKPVQMMYQIGLFRVASMASEKMKILELPFASGTMSMLVLLPDEVSGLEQLESIINFEKLTEWTSSNVMEERKIKVYLPRMKMEEKYNLTSVLMAMGITDVFSSSANLSGISSAESLKISQAVHAAHAEINEAGREVVGSAEAGVDAASVSEEFRADHPFLFCIKHIATNAVLFFGRCVSP
modifications: particulate form
notes: immunogenic form of particulate Ovalbumin
As for B2, the “anti-OVA IgG antibody titers at day 54” value in test [2] was “robust immune response”.
